Results published in article PMC3800017.

These binders were tested against Pdx1 homeodomain (Pdx1-HD) (Homo sapiens, UniProt P52945 146-206) (assay: ITC).
Chain of Pdx1 homeodomain (Pdx1-HD) (P52945 146-206): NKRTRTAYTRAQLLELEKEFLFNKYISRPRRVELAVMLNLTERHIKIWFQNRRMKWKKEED

Row | Binder | Kd
1 | IAPP A2 (dsDNA) DNA 1: ATGAGTTAATGTAATA DNA 2: TATTACATTAACTCAT | 27 ± 7 nM
2 | IAPP A1 (dsDNA) DNA 1: GGAAATTAATGACAGA DNA 2: TCTGTCATTAATTTCC | 22 ± 5 nM
3 | Insulin A1 (dsDNA) DNA 1: AGGCCCTAATGGGCCA DNA 2: TGGCCCATTAGGGCCT | 7 ± 2 nM
4 | Insulin E1 (dsDNA) DNA 1: AGCCATCTGCCGACCC DNA 2: GGGTCGGCAGATGGCT | 1300 ± 300 nM
5 | Insulin A3 (dsDNA) DNA 1: AGACTCTAATGACCCG DNA 2: CGGGTCATTAGAGTCT | 4 ± 1 nM
